According to patent US20170305994A1:

Target: T1, human DR3 (full length, on cells) (human) (UniProt Q93038)
T1 sequence: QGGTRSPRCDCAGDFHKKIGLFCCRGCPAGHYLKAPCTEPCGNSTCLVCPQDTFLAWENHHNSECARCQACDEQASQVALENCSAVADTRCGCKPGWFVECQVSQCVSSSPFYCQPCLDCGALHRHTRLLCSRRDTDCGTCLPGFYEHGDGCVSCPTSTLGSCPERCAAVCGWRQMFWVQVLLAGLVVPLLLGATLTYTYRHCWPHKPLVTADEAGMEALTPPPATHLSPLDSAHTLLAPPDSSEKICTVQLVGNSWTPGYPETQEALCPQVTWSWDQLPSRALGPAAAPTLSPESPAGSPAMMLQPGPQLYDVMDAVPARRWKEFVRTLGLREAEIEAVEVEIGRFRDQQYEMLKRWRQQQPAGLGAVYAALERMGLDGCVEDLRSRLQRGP
Test: cell-based or functional assay

B1: TL1A (R&D Systems) (ligand, UniProt O95150 72-251, looked up)
chain: LKGQEFAPSHQQVYAPLRADGDKPRAHLTVVRQTPTQHFKNQFPALHWEHELGLAFTKNRMNYTNKFLLIPESGDYFIYSQVTFRGMTSECSEIRQAGRPNKPDSITVVITKVTDSYPEPTQLLMGTKSVCEVGSNWFQPIYLGAMFSLQEGDKLMVNVSDISLVDYTKEDKTFFGAFLL
  fold response, DR3 reporter, 40 ng/ml TL1A alone: 32.8 fold
